From patent US20180251570A1 (Bayer, published 2018) come the findings set out here.

The target of this test is T1, human tissue factor pathway inhibitor (TFPI) (human, UniProt P10646 29-304, limits assumed).
T1 construct: also called human TFPI (American Diagnostica)
T1 sequence (looked up): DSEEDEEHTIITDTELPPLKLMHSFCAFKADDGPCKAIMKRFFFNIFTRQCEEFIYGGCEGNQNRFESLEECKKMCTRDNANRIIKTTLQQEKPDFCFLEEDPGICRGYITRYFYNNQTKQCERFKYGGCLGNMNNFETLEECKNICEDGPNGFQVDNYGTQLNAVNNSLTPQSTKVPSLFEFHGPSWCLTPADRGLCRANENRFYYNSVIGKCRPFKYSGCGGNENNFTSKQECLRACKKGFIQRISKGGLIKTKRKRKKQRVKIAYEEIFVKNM
As to the kind of experiment: BIACORE kinetics, CM4 chip with low density of amine-coupled human TFPI, antibody injected. The protocol: A CM4 sensor chip was immobilized with a low density of human TFPI using an amine coupling kit (GE HealthCare). Kinetic assays of parental IgG and IgG-linker1 were conducted using different concentration of the antibodies, followed by regeneration with pH 1.5 glycine buffer. The parental IgG and IgG-linker1 antibodies at a concentration of 1 μg were digested with 1 unit of biotinylated thrombin (Novagen) for 1 hr at 37° C. The antibodies with or without digestion were injected to a BIACORE™ system for TFPI-binding analysis.

B1: parental IgG (parental anti-TFPI antibody) (antibody)
heavy: EVQLVESGGGLVQPGGSLRLSCAASGFTFSSYGMDWVRQAPGKGLEWVSSIRGSRGSTYYADSVKGRFTISRDNSKNTLYLQMNSLRAEDTAVYYCARLYRYWFDYWGQGTLVTVSSASTKGPSVFPLAPCSRSTSESTAALGCLVKDYFPEPVTVSWNSGALTSGVHTFPAVLQSSGLYSLSSVVTVPSSNFGTQTYTCNVDHKPSNTKVDKTVERKCCVECPPCPAPPVAGPSVFLFPPKPKDTLMISRTPEVTCVVVDVSHEDPEVQFNWYVDGVEVHNAKTKPREEQFNSTFRVVSVLTVVHQDWLNGKEYKCKVSNKGLPAPIEKTISKTKGQPREPQVYTLPPSREEMTKNQVSLTCLVKGFYPSDIAVEWESNGQPENNYKTTPPMLDSDGSFFLYSKLTVDKSRWQQGNVFSCSVMHEALHNHYTQKSLSLSPG
light: SYELTQPPSVSVSPGQTARITCSGDNLPKYYAHWYQQKPGQAPVVVIFYDVNRPSGIPERFSGSNSGNTATLTISGTQAMDEADYYCQAWWSSTPVFGGGTKLTVLGQPKAAPSVTLFPPSSEELQANKATLVCLISDFYPGAVTVAWKADSSPVKAGVETTTPSKQSNNKYAASSYLSLTPEQWKSHRSYSCQVTHEGSTVEKTVAPTECS
notes: Expressed in HEK293 6E cells; also called Parent IgG; WT antibody
As usually defined, the kon is the second-order rate constant of association. Low readings indicate slow association, high ones fast association. As to B1, the kon was 1.54e+06 M⁻¹ s⁻¹.

B2: IgG-linker1 (protease-regulated anti-TFPI IgG, undigested) (antibody)
light: SYELTQPPSVSVSPGQTARITCSGDNLPKYYAHWYQQKPGQAPVVVIFYDVNRPSGIPERFSGSNSGNTATLTISGTQAMDEADYYCQAWWSSTPVFGGGTKLTVLGGGGSLVPRGSGGGGSGQPKAAPSVTLFPPSSEELQANKATLVCLISDFYPGAVTVAWKADSSPVKAGVETTTPSKQSNNKYAASSYLSLTPEQWKSHRSYSCQVTHEGSTVEKTVAPTECS
heavy: EVQLVESGGGLVQPGGSLRLSCAASGFTFSSYGMDWVRQAPGKGLEWVSSIRGSRGSTYYADSVKGRFTISRDNSKNTLYLQMNSLRAEDTAVYYCARLYRYWFDYWGQGTLVTVSSASGGGGSLVPRGSGGGGSTKGPSVFPLAPCSRSTSESTAALGCLVKDYFPEPVTVSWNSGALTSGVHTFPAVLQSSGLYSLSSVVTVPSSNFGTQTYTCNVDHKPSNTKVDKTVERKCCVECPPCPAPPVAGPSVFLFPPKPKDTLMISRTPEVTCVVVDVSHEDPEVQFNWYVDGVEVHNAKTKPREEQFNSTFRVVSVLTVVHQDWLNGKEYKCKVSNKGLPAPIEKTISKTKGQPREPQVYTLPPSREEMTKNQVSLTCLVKGFYPSDIAVEWESNGQPENNYKTTPPMLDSDGSFFLYSKLTVDKSRWQQGNVFSCSVMHEALHNHYTQKSLSLSPG
notes: Expressed in HEK293 6E cells; also called IgG2-linker1
In turn, B2 gave a kon of 1.9e+06 M⁻¹ s⁻¹.
